# Columns and labels:
# [1] = target: FUS^N-FusionRed-Cry2olig-VioE; assay: cell-based or functional assay
# FUS^N-Citrine-PixE-VioE = assay: cell-based or functional assay
# FUS^N-FusionRed-Cry2olig-VioE, sequence (Q96524 other isoform, or with tags, fused parts or gaps): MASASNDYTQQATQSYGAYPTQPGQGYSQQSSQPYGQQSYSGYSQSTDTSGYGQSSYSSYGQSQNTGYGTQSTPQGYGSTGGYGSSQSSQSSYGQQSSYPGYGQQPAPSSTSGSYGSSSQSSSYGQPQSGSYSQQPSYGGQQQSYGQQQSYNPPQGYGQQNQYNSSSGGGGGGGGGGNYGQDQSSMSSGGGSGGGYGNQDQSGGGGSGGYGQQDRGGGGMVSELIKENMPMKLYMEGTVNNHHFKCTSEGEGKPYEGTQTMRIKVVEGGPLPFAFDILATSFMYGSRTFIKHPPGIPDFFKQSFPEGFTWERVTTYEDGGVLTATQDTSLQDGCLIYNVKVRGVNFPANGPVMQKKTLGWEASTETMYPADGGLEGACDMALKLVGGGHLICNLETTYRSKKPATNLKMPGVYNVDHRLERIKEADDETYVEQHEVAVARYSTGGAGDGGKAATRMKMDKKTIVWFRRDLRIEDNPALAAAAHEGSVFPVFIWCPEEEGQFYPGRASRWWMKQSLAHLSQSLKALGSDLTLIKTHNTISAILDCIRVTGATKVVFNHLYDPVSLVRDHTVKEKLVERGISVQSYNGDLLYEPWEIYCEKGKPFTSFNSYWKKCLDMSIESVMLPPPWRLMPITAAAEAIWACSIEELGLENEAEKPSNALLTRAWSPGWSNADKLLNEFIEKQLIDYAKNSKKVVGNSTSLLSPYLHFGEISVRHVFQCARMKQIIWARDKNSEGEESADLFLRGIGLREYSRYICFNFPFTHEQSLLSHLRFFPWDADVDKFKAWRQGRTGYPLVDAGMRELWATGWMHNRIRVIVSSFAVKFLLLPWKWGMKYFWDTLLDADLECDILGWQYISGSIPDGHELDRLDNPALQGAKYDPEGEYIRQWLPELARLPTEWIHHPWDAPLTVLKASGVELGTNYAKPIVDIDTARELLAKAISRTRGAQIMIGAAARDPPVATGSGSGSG
# FUS^N-Citrine-Cry2olig-VioC, sequence (P35637 1-214, tags or fused parts left off): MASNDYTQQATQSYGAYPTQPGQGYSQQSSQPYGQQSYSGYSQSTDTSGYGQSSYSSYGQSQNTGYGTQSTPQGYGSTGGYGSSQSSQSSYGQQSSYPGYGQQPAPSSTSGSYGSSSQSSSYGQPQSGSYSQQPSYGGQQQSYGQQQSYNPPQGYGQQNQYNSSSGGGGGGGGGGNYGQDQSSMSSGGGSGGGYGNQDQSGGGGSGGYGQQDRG
# VioC-FUS^N-Citrine-Cry2olig, sequence (Q9S3U9 1-429, tags or fused parts left off): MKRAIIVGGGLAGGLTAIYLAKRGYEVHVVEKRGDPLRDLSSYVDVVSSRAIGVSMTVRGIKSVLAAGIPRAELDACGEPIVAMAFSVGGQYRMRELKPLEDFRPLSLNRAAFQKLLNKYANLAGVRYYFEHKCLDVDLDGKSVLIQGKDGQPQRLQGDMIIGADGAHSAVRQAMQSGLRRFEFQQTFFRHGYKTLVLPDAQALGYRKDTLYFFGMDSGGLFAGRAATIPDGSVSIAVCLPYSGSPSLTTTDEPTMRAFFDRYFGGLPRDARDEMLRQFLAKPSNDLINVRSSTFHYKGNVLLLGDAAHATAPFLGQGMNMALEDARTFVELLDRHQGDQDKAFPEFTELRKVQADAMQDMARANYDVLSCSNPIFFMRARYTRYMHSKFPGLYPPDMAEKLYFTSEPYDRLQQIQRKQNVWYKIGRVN
substance,measurement,setting,value
FUS^N-Citrine-Cry2olig-VioC (from UniProt P35637 1-214; Q96524 1-498; Q9S3U9 1-429),"deoxyviolacein production under continuous blue light relative to dark (HPLC, strain YNS34)",[1],2 fold
FUS^N-FusionRed-PixD-VioC (from UniProt Q9S3U9 1-429),"change in deoxyviolacein production from light to dark (HPLC, strain YEZ257, [Zeo]max 1,200 mg/L)",FUS^N-Citrine-PixE-VioE,6.1 fold
same,"change in deoxyviolacein-to-PDV ratio from light to dark (HPLC, strain YEZ257, [Zeo]max 1,200 mg/L)",FUS^N-Citrine-PixE-VioE,18.4 fold
VioC-FUS^N-Citrine-Cry2olig (from UniProt Q9S3U9 1-429; P35637 1-214; Q96524 1-498),"deoxyviolacein production under continuous blue light relative to dark (HPLC, strain YNS36)",[1],2 fold
